Experimental data: patent US20140023646A1
pKd: −log10 of the molar value.

Columns and labels:
[1] = target: KIR receptors on NK cells (all inhibitory KIR2DL receptors); assay: cell-based or functional assay
[2] = target: recombinant KIR 2DL1 protein (entire extracellular domain, produced in E. coli, refolded) (human) (UniProt P43626); assay: SPR (Biacore), KIR 2DL1 immobilized on CM5 chip, soluble antibody as analyte
[3] = target: recombinant KIR 2DL3 protein (entire extracellular domain, produced in E. coli, refolded) (human) (UniProt P43628); assay: SPR (Biacore), KIR 2DL3 immobilized on CM5 chip, soluble antibody as analyte

human anti-KIR monoclonal antibody 1-7F9
increased expression of CD107a on NK cells [1]: 0.5 to 13.6%

monoclonal antibody DF200 produced by hybridoma DF200
pKd [2]: 7.96
pKd [3]: 8.70
